Literature values as cited in publication PMC5587394.

Biological target: FGF20 (Homo sapiens) (UniProt Q9NP95)

FGF20, sequence (Q9NP95 whole entry): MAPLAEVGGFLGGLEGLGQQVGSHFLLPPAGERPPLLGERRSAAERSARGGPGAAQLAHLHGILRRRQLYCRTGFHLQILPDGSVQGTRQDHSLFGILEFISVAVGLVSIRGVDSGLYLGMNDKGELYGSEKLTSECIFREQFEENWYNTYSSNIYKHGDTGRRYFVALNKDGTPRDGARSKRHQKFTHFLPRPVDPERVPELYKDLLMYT

Substance: FGF20 (from UniProt Q9NP95)
- Kd: 100 nM
